Results: patent US20090221530A1, “Relaxase Modulators and Methods of Using Same” (priority 2005, published 2009)

Tests used:
Assay in all cases: cleavage_in_vitro
[1] = test system: TraI D81N D81N (Escherichia coli F plasmid); conditions: crossover 10%; in vivo transfer 0.0030%; printed DB1N in table; 6 mM MgCl2, 37 C
[2] = test system: TraI H159E H159E (Escherichia coli F plasmid); conditions: crossover eliminated per text (nd in table); in vivo transfer 0.0010%; 6 mM MgCl2, 37 C
[3] = test system: TraI H159Q H159Q (Escherichia coli F plasmid); conditions: crossover 95%; text calls this no change; 6 mM MgCl2, 37 C
[4] = test system: TraI K265M K265M (Escherichia coli F plasmid); conditions: in vivo transfer 59%; 6 mM MgCl2, 37 C
[5] = test system: TraI wild-type (full length or N300) (Escherichia coli F plasmid); conditions: crossover 100%; 6 mM MgCl2, 150 mM NaCl, pH 7.5, 37 C

With oriT 22-mer the activity (% of WT cleavage) [1] was 53, the activity (% of WT cleavage) [2] was 8.5 and the activity (% of WT cleavage) [3] was 55. For the same substance, the activity (% of WT cleavage) [4] was 100 and the activity [5] was 100 % cleavage.
